Experimental findings from publication PMC10484683 are described below.

Where two headings read alike, the source gives them in different places.

For data set [1], the target named is T1, CTCF ZF1-ZF7 (Homo sapiens, UniProt P49711 263-465).
T1 sequence: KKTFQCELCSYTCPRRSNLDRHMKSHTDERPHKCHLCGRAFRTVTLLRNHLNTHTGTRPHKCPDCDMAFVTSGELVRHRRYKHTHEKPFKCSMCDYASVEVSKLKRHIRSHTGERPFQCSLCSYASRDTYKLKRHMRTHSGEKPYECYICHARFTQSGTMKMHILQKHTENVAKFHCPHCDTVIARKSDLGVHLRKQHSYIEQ
Put plainly: X-ray crystallography.

For data set [2], the target named is T1, CTCF ZF1-ZF7. Put plainly: fluorescence polarization. On the technique in general: In fluorescence polarisation assays a small probe gives low polarisation when free and higher when bound to something large.
The target of data set [3] is T2, CTCF ZF3-ZF11 (Homo sapiens, UniProt P49711 322-577).
T2 sequence: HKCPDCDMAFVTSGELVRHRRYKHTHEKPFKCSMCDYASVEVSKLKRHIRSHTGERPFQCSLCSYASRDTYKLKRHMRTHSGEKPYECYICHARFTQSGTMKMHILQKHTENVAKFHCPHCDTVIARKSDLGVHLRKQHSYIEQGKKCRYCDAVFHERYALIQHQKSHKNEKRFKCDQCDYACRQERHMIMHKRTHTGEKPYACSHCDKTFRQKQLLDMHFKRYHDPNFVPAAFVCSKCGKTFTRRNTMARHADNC
Put plainly: X-ray crystallography.

Data set [4] addresses T2, CTCF ZF3-ZF11. Put plainly: X-ray crystallography. The source holds these as a separate data set.

B1: 23-bp (dsDNA)
DNA 1: GCCAGCAGGGGGCGCTAGTGAGG
DNA 2: CCTCACTAGCGCCCCCTGCTGGC
As for B1, the binding result with CTCF ZF1-ZF7 [1] is listed as “binds”.

B2: FP oligo X:Y=A:T (dsDNA)
DNA 1: AGGACCAGCAGGGGACGCA
DNA 2: TGCGTCCCCTGCTGGTCCT
For B2, the binding signal with CTCF ZF1-ZF7 [2] was 7 fold reduced affinity vs G:C.

B3: 35-4 (dsDNA)
DNA 1: GTGCAGTACCACATTTAACCAGCAGGGGGCGCTAA
DNA 2: TTAGCGCCCCCTGCTGGTTAAATGTGGTACTGCAC
Regarding B3, in the data set with CTCF ZF3-ZF11 [3], the binding result was “binds”.

B4: 19-bp (dsDNA)
DNA 1: TGCGCCCCCTGCTGGTCCT
DNA 2: AGGACCAGCAGGGGGCGCA
As to B4, the binding result with CTCF ZF3-ZF11 [4] is given as “binds”.
